For three molecules, binding result and Kd results are on record in publication PMC6906086.

Series [1] concerns the target Lsr2BD T112D (Mycobacterium tuberculosis H37Rv, UniProt P9WIP7 66-112, T112D). The series can be described thus: fluorescence anisotropy. The following applies: protein: recombinant, blunt.
The target in series [2] is Lsr2BD T112A (Mycobacterium tuberculosis H37Rv, UniProt P9WIP7 66-112, T112A). Kind of series: fluorescence anisotropy; pH 7.5; 4 nM DNA. The following applies: protein: recombinant; label: 5' Alexa Fluor 488; blunt.
Series [3] addresses Lsr2 (Mycobacterium tuberculosis H37Rv, UniProt P9WIP7 1-112). The series can be described thus: EMSA; 0.95-7.6 uM Lsr2. To be noted: protein: recombinant; (pET15-TEV, Ni-NTA); chain copies: 2; blunt.
Series [4] addresses Lsr2BD WT (Mycobacterium tuberculosis H37Rv, UniProt P9WIP7 66-112). The series can be described thus: fluorescence anisotropy. To be noted: protein: recombinant; tags: 6xHis; blunt.

B1: AT-rich 14-mer (dsDNA)
DNA 1: CGCGCATATATGCG
DNA 2: CGCATATATGCGCG
Consider B1, for which the binding result in series [1] (label: 5' Alexa Fluor 488) is recorded as “no binding”. The Kd in series [2] came to 20 ± 8 nM.

B2: leuS MUT (dsDNA)
DNA 1: AACTCGGCGAGGTCGGTCAG
DNA 2: CTGACCGACCTCGCCGAGTT
As for B2, the binding result in series [3] is on record as “binds”.

B3: GC-rich fragment (leuS MUT sequence), anisotropy (dsDNA)
DNA 1: AACTCGGCGAGGTCGGTCAG
DNA 2: CTGACCGACCTCGCCGAGTT
Regarding B3, the binding result in series [4] and in series [1] was “no binding” in each case.
